SMILES strings stand for the structures. Where a SMILES comes first, the peptide text is derived from it. [ ]: non-standard residue; d: D form. The star is where a group is joined. X1 = O=C(CCCCCCCn1cnc2c(Br)c(Br)c(Br)c(Br)c21)*

Targets include PIM3 (Homo sapiens, UniProt Q86V86); STK33 (Homo sapiens, UniProt Q9BYT3); WNK1 (Homo sapiens, UniProt Q9H4A3); EPH-A4 (Homo sapiens, UniProt P54764).
Assay in all cases: Kinase panel residual activity
What all share (assay type): biochemical
Common to all, as to conditions: compound at 1 micromolar

The target of a further series is T1, p38d MAPK (Homo sapiens, UniProt O15264).
T1 sequence (O15264 1-365): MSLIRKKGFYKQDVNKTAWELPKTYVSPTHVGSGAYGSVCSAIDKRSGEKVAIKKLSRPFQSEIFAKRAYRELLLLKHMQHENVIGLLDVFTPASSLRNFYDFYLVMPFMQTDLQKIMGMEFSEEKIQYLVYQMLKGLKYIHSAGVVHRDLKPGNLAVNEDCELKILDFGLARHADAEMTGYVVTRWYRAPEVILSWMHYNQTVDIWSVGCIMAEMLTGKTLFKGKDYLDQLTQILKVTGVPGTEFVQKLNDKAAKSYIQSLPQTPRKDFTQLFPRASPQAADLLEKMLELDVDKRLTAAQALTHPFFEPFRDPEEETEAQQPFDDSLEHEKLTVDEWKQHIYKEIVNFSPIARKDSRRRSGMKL

The next series has as its target T2, BRSK1 (Homo sapiens, UniProt Q8TDC3).
T2 sequence (Q8TDC3 1-778): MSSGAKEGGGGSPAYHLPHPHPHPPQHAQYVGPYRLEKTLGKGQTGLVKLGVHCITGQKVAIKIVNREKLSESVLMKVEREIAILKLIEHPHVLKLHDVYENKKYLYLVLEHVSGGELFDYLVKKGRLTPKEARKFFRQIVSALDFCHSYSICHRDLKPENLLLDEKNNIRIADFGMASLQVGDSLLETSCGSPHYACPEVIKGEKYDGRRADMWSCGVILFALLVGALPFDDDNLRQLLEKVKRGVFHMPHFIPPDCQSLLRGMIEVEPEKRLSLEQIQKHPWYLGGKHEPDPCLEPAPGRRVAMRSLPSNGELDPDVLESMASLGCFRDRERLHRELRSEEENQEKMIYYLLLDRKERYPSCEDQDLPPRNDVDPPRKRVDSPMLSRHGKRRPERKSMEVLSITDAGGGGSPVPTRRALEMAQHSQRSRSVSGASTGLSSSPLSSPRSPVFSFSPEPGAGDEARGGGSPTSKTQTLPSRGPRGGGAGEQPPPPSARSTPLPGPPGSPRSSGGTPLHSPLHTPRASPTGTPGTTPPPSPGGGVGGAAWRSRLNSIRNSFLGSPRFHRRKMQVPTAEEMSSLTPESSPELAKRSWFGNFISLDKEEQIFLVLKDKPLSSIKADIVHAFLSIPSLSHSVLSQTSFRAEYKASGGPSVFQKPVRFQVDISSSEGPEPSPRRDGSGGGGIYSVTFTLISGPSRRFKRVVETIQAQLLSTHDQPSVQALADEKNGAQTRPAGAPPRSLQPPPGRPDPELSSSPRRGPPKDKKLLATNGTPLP

Another series addresses T3, DDR2 (Homo sapiens, UniProt Q16832).
T3 sequence (Q16832 22-855): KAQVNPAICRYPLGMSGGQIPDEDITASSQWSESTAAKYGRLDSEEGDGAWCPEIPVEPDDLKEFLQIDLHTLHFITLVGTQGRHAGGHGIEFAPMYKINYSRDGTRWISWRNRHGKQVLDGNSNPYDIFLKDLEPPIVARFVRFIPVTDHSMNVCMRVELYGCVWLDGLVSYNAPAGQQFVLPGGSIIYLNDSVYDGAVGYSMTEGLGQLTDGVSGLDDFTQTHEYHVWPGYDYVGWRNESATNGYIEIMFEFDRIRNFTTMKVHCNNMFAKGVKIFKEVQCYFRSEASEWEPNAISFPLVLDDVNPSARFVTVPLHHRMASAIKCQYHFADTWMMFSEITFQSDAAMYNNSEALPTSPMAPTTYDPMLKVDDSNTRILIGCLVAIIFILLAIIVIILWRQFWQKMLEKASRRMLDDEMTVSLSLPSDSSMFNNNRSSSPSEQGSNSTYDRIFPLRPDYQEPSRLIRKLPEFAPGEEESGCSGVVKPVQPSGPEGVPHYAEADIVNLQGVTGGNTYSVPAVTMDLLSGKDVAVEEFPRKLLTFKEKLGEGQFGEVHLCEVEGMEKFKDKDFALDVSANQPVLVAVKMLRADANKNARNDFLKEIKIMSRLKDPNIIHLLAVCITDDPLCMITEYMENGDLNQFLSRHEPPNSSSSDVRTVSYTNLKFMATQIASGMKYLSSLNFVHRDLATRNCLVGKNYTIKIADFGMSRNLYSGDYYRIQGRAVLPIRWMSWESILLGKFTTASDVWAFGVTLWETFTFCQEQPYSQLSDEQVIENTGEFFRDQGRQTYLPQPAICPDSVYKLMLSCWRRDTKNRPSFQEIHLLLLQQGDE

In the next series the target is T4, BRSK2 (Homo sapiens, UniProt Q8IWQ3).
T4 sequence (Q8IWQ3 1-736): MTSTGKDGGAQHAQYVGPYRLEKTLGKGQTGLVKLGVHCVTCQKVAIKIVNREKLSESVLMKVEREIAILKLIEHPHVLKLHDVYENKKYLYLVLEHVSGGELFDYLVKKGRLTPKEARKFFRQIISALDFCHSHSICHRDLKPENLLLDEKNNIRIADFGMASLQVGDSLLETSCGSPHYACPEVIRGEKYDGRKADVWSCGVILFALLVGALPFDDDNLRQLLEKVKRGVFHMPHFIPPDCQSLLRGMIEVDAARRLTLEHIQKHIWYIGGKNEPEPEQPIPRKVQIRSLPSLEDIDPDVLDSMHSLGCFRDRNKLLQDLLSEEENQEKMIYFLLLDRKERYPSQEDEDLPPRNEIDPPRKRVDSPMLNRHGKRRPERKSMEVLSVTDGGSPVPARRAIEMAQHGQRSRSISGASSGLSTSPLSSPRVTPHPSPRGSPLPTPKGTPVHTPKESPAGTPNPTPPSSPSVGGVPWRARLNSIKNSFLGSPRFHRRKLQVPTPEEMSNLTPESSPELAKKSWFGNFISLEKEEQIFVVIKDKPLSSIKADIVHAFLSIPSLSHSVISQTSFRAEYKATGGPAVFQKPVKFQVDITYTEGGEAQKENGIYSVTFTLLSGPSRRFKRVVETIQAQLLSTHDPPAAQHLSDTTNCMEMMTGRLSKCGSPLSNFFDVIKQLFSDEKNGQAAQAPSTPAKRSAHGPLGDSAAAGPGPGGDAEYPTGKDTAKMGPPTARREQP

Sequence of STK33 (Q9BYT3 whole entry, species assumed): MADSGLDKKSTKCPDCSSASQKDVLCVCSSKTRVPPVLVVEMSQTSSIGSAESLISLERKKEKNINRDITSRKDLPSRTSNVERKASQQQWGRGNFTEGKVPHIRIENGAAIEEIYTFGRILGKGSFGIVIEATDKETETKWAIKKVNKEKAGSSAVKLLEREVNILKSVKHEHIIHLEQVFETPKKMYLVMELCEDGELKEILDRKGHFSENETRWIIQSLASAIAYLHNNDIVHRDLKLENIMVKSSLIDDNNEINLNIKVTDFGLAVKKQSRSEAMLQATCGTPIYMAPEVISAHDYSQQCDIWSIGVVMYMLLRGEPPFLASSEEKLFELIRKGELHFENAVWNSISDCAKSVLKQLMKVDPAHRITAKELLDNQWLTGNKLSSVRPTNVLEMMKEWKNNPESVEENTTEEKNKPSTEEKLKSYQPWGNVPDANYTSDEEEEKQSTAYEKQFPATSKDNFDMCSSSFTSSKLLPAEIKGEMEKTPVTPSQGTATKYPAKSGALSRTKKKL
Sequence of WNK1 (Q9H4A3 whole entry, species assumed): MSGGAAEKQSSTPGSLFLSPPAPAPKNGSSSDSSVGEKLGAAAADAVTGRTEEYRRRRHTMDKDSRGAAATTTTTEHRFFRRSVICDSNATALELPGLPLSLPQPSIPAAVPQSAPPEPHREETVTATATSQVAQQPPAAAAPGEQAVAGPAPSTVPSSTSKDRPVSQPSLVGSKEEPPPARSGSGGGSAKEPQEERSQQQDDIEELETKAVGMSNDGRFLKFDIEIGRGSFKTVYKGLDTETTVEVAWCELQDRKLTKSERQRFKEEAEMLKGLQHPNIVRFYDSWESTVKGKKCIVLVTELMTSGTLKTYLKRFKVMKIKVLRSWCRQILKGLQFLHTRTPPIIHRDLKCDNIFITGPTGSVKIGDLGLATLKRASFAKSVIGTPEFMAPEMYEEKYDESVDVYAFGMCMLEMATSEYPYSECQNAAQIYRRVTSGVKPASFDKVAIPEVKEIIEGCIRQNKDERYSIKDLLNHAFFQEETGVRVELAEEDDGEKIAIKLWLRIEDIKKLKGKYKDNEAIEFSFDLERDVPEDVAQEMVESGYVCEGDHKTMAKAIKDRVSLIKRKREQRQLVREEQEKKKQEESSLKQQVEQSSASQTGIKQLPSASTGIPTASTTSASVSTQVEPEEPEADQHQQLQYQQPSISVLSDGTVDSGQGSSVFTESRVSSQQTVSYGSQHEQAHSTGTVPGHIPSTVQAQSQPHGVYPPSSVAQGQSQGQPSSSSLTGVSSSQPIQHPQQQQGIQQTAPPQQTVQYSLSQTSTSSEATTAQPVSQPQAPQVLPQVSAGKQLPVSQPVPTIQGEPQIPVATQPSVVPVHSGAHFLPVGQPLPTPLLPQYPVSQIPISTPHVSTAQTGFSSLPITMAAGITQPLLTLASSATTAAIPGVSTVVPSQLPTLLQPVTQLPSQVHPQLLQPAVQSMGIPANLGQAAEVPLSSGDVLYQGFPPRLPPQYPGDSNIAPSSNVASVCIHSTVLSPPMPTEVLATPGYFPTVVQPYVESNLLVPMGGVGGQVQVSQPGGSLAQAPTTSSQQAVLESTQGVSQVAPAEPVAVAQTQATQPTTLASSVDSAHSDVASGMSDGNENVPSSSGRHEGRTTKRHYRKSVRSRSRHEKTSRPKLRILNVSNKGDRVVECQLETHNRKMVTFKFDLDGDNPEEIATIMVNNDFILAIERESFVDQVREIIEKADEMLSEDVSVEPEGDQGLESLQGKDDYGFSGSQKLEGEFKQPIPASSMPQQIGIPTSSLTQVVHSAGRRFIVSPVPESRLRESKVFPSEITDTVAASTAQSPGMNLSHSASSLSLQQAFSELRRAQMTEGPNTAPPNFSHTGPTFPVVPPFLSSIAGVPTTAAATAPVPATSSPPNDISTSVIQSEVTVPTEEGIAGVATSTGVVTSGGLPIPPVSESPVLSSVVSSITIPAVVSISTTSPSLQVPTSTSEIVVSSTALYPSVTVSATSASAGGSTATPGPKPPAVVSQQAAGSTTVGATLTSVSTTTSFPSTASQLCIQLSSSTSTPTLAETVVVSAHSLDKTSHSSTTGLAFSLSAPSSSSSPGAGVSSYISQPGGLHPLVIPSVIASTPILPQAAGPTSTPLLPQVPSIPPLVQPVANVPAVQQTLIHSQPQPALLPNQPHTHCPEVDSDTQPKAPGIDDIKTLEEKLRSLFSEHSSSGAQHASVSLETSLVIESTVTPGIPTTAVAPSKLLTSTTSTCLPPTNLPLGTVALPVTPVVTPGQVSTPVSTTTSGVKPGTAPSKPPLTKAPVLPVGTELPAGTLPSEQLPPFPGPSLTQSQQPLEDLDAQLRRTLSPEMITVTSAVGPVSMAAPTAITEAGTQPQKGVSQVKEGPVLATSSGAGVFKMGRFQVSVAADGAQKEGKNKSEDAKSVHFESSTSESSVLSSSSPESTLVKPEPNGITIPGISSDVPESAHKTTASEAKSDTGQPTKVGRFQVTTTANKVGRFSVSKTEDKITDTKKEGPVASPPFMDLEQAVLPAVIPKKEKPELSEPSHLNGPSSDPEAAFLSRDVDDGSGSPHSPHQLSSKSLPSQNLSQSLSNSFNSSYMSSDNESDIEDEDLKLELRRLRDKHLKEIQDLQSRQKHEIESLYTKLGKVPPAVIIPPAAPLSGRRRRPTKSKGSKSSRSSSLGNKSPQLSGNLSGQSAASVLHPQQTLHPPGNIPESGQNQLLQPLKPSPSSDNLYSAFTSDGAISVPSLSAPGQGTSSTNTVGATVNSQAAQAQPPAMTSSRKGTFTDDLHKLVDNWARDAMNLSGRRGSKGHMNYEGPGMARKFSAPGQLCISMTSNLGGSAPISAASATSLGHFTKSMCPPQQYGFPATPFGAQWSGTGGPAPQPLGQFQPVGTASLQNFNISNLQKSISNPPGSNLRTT
Sequence of EPH-A4 (P54764 20-986, species assumed): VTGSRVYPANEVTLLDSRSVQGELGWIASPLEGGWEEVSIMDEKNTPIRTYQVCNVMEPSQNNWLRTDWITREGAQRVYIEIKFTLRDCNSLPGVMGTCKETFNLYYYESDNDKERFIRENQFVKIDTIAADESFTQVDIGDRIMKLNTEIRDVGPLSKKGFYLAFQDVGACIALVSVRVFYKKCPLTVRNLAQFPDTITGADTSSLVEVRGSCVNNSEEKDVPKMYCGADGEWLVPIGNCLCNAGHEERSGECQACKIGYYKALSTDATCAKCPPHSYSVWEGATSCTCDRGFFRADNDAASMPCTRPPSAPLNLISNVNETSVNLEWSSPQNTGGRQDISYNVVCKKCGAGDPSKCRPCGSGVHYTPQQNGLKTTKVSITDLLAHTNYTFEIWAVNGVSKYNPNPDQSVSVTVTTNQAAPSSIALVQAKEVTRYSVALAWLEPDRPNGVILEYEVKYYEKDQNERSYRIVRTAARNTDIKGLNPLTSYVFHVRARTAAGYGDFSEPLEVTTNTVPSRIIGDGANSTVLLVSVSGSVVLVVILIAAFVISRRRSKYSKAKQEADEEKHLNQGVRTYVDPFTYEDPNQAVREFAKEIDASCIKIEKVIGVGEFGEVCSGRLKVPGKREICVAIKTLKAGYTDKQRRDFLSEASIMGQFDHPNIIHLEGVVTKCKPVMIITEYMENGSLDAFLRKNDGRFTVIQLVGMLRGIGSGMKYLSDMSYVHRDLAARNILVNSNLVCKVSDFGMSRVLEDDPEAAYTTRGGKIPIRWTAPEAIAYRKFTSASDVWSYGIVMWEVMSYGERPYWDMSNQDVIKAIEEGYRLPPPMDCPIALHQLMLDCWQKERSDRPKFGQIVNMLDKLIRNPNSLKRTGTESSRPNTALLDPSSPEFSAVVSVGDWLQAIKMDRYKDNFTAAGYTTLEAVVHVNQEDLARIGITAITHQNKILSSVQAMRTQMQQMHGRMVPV

Turning to `NCCCC[C@H](NC(=O)[C@H](CC(=O)O)NC(=O)[C@H](CC(=O)O)NC(=O)[C@H](CC(=O)O)NC(=O)[C@H](CC(=O)O)NC(=O)[C@H](CC(=O)O)NC(=O)[C@@H](CC(=O)O)NC(=O)CCCCCCCn1cnc2c(Br)c(Br)c(Br)c(Br)c21)C(=O)O` [TBBI-OcA-(D-Asp)-(L-Asp)5-(L-Lys)-OH] (X1-[dD]DDDDDK-OH), the remaining activity at 1 µM was 93% with p38d MAPK; 95% with BRSK1; 59% with PIM3; 109% with DDR2; 96% with STK33; 75% in the series with BRSK2. The remaining activity at 1 µM with WNK1 was determined as 88%; with EPH-A4, 117%.
